Data on seven substances can be found in patent US20240043522A1.

Assay [1] concerns the target biotinylated human FcRn protein (human) (UniProt P55899). Briefly: SPR (Biacore T200), biotinylated hFcRn captured on CAP chip, antibody as analyte. On the technique in general: In SPR one partner is held on a chip, and binding of the other changes the refractive index at the surface.
The target of assay [2] is His-tagged recombinant mouse FcγR4/CD16-2 (mouse). Put plainly: SPR (Biacore T200), His-tagged FcγR captured by anti-His, antibody as analyte, 1:1 kinetic model.
The target of assay [3] is His-tagged recombinant human FcγRIIb/c/CD32b/c (human) (UniProt P31994). The assay is described as above.
Chain of His-tagged recombinant human FcγRIIb/c/CD32b/c (human) (P31994 46-217 limits assumed): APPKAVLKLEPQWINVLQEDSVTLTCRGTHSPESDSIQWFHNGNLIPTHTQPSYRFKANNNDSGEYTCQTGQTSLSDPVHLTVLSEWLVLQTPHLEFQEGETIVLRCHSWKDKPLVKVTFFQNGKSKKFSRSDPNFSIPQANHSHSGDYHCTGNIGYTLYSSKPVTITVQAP
Assay [4] deals with His-tagged recombinant human FcγRIIa/CD32a (R167) (human) (UniProt P12318). The description is as above.
Chain of His-tagged recombinant human FcγRIIa/CD32a (R167) (human) (P12318 36-218 H167R limits assumed): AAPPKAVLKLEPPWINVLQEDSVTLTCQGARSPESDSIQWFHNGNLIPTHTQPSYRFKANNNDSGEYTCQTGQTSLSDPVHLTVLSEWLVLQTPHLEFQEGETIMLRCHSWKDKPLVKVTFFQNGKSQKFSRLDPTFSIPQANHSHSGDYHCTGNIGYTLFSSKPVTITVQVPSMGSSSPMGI
For assay [5], the target named is His-tagged recombinant human FcγRIIIa/CD16a (V158) (human) (UniProt P08637). Described as above.
Chain of His-tagged recombinant human FcγRIIIa/CD16a (V158) (human) (P08637 17-208 F176V limits assumed): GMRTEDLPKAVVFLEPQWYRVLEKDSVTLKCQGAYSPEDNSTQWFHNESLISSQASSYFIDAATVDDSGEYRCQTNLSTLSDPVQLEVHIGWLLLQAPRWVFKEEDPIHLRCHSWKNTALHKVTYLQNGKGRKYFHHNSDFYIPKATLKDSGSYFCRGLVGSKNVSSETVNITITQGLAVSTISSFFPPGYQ
Assay [6] addresses His-tagged recombinant human FcγRI/CD64 (human) (UniProt P12314). The description is as above.

As a reminder, the pKd is the negative decadic logarithm of the Kd, by convention in mol/L.

pKd: −log10 of the molar value. Where only a bound is given, the exact number is not on record here.

Chain of His-tagged recombinant human FcγRI/CD64 (human) (P12314 16-288 limits assumed): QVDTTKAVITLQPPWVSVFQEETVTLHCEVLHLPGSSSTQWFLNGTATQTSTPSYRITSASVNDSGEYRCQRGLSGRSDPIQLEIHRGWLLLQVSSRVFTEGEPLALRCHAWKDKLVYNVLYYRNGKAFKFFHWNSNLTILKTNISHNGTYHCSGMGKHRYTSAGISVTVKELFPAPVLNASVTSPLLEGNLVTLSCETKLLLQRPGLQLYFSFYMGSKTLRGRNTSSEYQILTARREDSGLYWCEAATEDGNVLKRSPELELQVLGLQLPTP
Chain of biotinylated human FcRn protein (human) (P55899 24-297 limits assumed, form in doubt, chain 1 of 2): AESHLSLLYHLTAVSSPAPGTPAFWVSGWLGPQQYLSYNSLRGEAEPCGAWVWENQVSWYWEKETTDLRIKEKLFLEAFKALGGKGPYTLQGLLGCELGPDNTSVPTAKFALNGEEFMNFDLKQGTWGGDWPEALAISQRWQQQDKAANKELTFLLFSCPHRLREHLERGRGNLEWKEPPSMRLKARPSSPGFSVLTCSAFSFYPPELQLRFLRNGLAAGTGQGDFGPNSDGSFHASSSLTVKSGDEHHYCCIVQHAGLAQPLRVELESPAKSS
Chain of biotinylated human FcRn protein (human) (P61769 21-119 limits assumed, form in doubt, chain 2 of 2, further chain): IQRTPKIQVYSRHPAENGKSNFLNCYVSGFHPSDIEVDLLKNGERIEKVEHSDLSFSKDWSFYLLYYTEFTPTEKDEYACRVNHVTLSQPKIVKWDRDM

The substance “mab07 (adalimumab Fab, upside-down IgG1 Fc with 19GS-linker between CH1 and CH2) (antibody)” had a pKd in assay [1] of 6.46.

Consider “mab02 (adalimumab Fab, IgG1 L234A/L235A N297A, aglycosylated) (antibody)”, for which, in assay [1], the pKd is 6.58.

As for “mab06 (adalimumab Fab, upside-down IgG1 Fc, no linker between CH1 and CH2) (antibody)”, the pKd in assay [1] was 6.28.

Turning to “mab03 (adalimumab Fab, IgG2 Fc-backbone) (antibody)”, the pKd in assay [1] is 6.47; in assay [2] it was under 5.00; in assay [3], under 5.00; in assay [4] it was under 5.30; in assay [5], under 5.00.

Turning to “mab04 (adalimumab Fab, IgG1 E269R, K322A) (antibody)”, the pKd in assay [1] was 6.45; in assay [2], under 5.30; in assay [6] it was 8.17; in assay [5], under 5.00.

As for “mab05 (adalimumab Fab, IgG1 L234A/L235A P329A) (antibody)”, the values for the pKd in assay [1] and in assay [6] were 6.58 and under 5.00, respectively.

Take “mab01 (adalimumab, IgG1 wild-type) (antibody)”: the pKd in assay [1] is 6.44; in assay [2], 6.08; in assay [3], under 5.00; in assay [4], 5.48; in assay [6] it was 9.10; in assay [5], 6.18.
